Test: soluble on expression in E. coli; label from the status in PepcDB or PDB records

Row | Sequence | soluble on expression in E. coli
1 | GFIDSHVHLFGGSVELDCLSLYGVKGLDAMRAAIQPYAQANPDDALVFCVMADYDILGTGHTLTRHDLDSILADRPLAMFAPDHHTVWANTAALEATGLLQGGEVDAGSLIVLGEDGLANGELLEPGAYGPILGLTRHGGREMLGLTTGKDPEPPATPDQRARDKDVIARGLAHCAAQGITGLHLMDGNRYQLELLTELEAEGRLLCRCEVPFHMKGTDPVERMTAEAPAMRAAYRGDKVRCNHLKMFIDGVIESGTALMLRPYPGELGANDNTGDEVFTQEHFTACCVEADRLGFQIAVHAIGDAGVRRTIDAFEAARRANGTRDSRHRIEHIEVIHPDDIPRLAELDIVASLQPGHAPRGHVFPPGAVGQYLHPDQIVGAYAWQTIRETGARVVFSTDWPVIPVDVMPSLRAAIAPLDLGPDWPDQSQSLMDTLASYTRDNAWVEFNEDSKGRLKVGMAADIAVLSHDLTALAPDDITQAAAMVTIMDGAVTY | not soluble
2 | LLSDYYHKRFGVDTRSVRFPGLISNVTLPGGGTTDYAVDIYYAAVKEGRFTCPIKEGTYMDMMYMPDALRACVELMEADPARLVHRNSFNITAMSFEPSQIAAAVKKLVPDFVMNYEVDPLRQGIAESWPNSLDDSCARSEWDWKPDYDLDSMSADMIQILKARYGK | not soluble
3 | SKHSNKPYDSFQDELEDYIKVQKARGLEPKTCFRRMRGEYLESCGYREEFDSRPRYRMFDQRLPSGTNHSYPRSCSSSQTEDRVPQWLPAHDKIRLNSLSYCQFTRDGFSEKPVPLNLSQQEYNCGSYSVESVVHKRLCSEHSTIDPQVSHRQMHQKRKKHVEEGREKQEERPKHERKRSSEEMDLNKHRSIQRKKTKAETETVQDGTEKLKNRKEKKTRDVSSKKEDRKRRKEKKEQGEERTEEEMLWDQSILGF | soluble
4 | MMDASKELQVLHIDFLNQDNAVSHHTWEFQTSSPVFRRGQVFHLRLVLNQPLQSYHQLKLEFSTGPNPSIAKHTLVVLDPRTPSDHYNWQATLQNESGKEVTVAVTSSPNAILGKYQLNVKTGNHILKSEENILYLLFNPWCKEDMVFMPDEDERKEYILNDTGCHYVGAARSIKCKPWNFGQFEKNVLDCCISLLTESSLKPTDRRDPVLVCRAMCAMMSFEKGQGVLIGNWTGDYEGGTAPYKWTGSAPILQQYYNTKQAVCFGQCWVFAGILTTVLRALGIPARSVTGFDSAHDTERNLTVDTYVNENGEKITSMTHDSVWNFHVWTDAWMKRPDLPKGYDGWQAVDATSQERSQGVFCCGPSPLTAIRKGDIFIVYDTRFVFSEVNGDRLIWLVKMVNGQEELHVISMETTSIGKNISTKAVGQDRRRDITYEYKYPEGSSEERQVMDHAFLLLSSEREHRRPVKENFLHMSVQSDDVLLGNSVNFTVILKRKTAALQNVNILGSFELQLYTGKKMAKLCDLNKTSQIQGQVSEVTLTLDSKTYINSLAILDDEPVIRGFIIAEIVESKEIMASEVFTSFQYPEFSIELPNTGRIGQLLVCNCIFKNTLAIPLTDVKFSLESLGISSLQTSDHGTVQPGETIQSQIKCTPIKTGPKKFIVKLSSKQVKEINAQKIVLITK | soluble
5 | MGSSHHHHHHSSGLVPRGSHMKRSSPVILVSEDEYGKFDESTNSILVKGKMHHLGISRVIEPGDELIVSGKSFIVSDFSPMYFGRVIRRNTQIISEIDASYIIMRCGLRPGMDILEVGVGSGNMSSYILYALNGKGTLTVVERDEDNLKKAMDNLSEFYDIGNVRTSRSDIADFISDQMYDAVIADIPDPWNHVQKIASMMKPGSVATFYLPNFDQSEKTVLSLSASGMHHLETVELMKRRILVREGATRPASDDLTHTAFITFAIKKSGMVYRI | soluble
6 | MKEHVKDKKTAIMGAALKLFTERGFHGTSTAQISKNAGVATGTLFNYFPTKEDLINSLYFEVKGNLGHSMGVGLEAETTFQDKLKRIWSNLVNWGVNNQEEFLFVGQFCSSPYITKFTRDEVMKEYVFLHNFVDEGIKTGEVRDFPAELVIAMFYQGSREVVNLILDSDSSLDKNKIIADGFQILWRGLAKV | not soluble
7 | AHHHHHHGSIEVRFHGRGGQGAVTAANILAEAAFLEGKYVQAFPFFGVERRGAPVTAFTRIDNKPIRIKTQIYEPDVVVVLDPSLLDAVDVTAGLKDEGIVIVNTEKSKEEVLEKLKKKPKKLAIVDATTIALEILGLPITNTAILGAVAKATGLVKIESIEEAIKDTFSGELGEKNARAAREAYEKTEVFEL | soluble
8 | MQSISNCPIGLVSKNTINSASTIAEWVACPWKYINVVGSGRYVSNKPDKITRYDLLKAAQEAEMQELLTRNDMKGRHKRNKKSKIALETIAEENSSTESLF | not soluble
9 | MSLTPFGVRSVVFDPDKGLVINGEHVPIRGVNNHHDLGALGAAFNVRAAERQLQLLQQMGANAIRMSHNPPAPELLELTDRMGLLVVDEVFDSWEMKKTPLDFHLIFPQWHEPDLRAMLRRDRNHPSIILWSVGNEVGEQYTGEAGAAIARRLHAIVHAEDPTRPATAAMNYASPEMPLPAALDVISLNYQGEGIRDTPEFEGTERIRKPPQYPAFHAKFPRKAILSSETASALSSRGVYLFPVSAQSSAPVRDGRGGDSVAHQVSAYELHAVDFGSSADKVFAALDRHPFVAGEFVWTGFDYLGEPTPYYSSRSSYSGILDLAGFPKDRYWLYQARWRPELPMAHLLPHWSWPGREGQVTPVHVFTSGDEAELFVNGVSQGRKRKAPLQYRLRWDAVVYQPGELRVQAYKHGRPWASDRVQTAGRATRMQLSADRNQIRGDGKDLSFITVRLLDADGRPAPTAGDRLRFRVEGAGELVATDNGDPTNLEAFVLPEREGHHHHHH | soluble
10 | MDTIWDADLQSAALKAEHHRLKTERLSLGYEGKSVCDALDLAIPHGKFSVIVGPNGCGKSTLLKSLCRLLKPLAGQVLLDGQNIHQLPTKVVAKQLGLLPQSALTPEGIKVVDLVSRGRYPHQGLFRQWSRVDERAVEEAMRATHVHELAQHSVDQLSGGQRQRVWVAMALAQQTPYLLLDEPTTYLDIAHQIELLDLFWRLNRQQGHTLVAVLHDLNQACRYADHLIVLQEGKIVAQGDPHSLVTPALVKQVFGIDCVVMPDPISCTPLIIPYSLKRG | not soluble
11 | ARKRAAGGEPRGRELRSQKSKAKSKARREEEEEDAFEDEKPPKKSLLSKVSQGKRKRGCSHPGGSADGPAKKKVAKVTVKSENLKVIKDEALSDGDDLRDFPSDLKKAHHLKRGATMNEDSNEEEEESENDWEEVEELSEPVLGDVRESTAFSRSLLPVKPVEIEIETPEQAKTRERSEKIKLEFETYLRRAMKRFNKGVHEDTHKVHLLCLLANGFYRNNICSQPDLHAIGLSIIPARFTRVLPRDVDTYYLSNLVKWFIGTFTVNAELSASEQDNLQTTLERRFAIYSARDDEELVHIFLLILRALQLLTRLVLSLQPIPLKSATAKGKKPSKERLTADPGGSSETSSQVLENHTKPKTSKGTKQEETFAKGTCRPSAKGKRNKGGRKKRSKPSSSEEDEGPGDKQEKATQRRPHGRERRVASRVSYKEESGSDEAGSGSDFELSSGEASDPSDEDSEPGPPKQRKAPAPQRTKAGSKSASRTHRGSHRKDPSLPVASSSSSSSKRGKKMCSDGEKAEKRSIAGIDQWLEVFCEQEEKWVCVDCVHGVVGQPLTCYKYATKPMTYVVGIDSDGWVRDVTQRYDPVWMTVTRKCRVDAEWWAETLRPYQSPFMDREKKEDLEFQAKHMDQPLPTAIGLYKNHPLYALKRHLLKYEAIYPETAAILGYCRGEAVYSRDCVHTLHSRDTWLKKARVVRLGEVPYKMVKGFSNRARKARLAEPQLREENDLGLFGYWQTEEYQPPVAVDGKVPRNEFGNVYLFLPSMMPIGCVQLNLPNLHRVARKLDIDCVQAITGFDFHGGYSHPVTDGYIVCEEFKDVLLTAWENEQAVIERKEKEKKEKRALGNWKLLAKGLLIRERLKRRYGPKSEAAAPHTDAGGGLSSDEEEGTSSQAEAARILAASWPQNREDEEKQKLKGGPKKTKREKKAAASHLFPFEKL | not soluble
12 | SLSHRTDGSLLFPLSLVHINDIHAHWEEIDTASVTCDPKRDGAAEQCLGGYARTVTIVRQLLQERPNPVYLNIGDNFQGTLWYNIHRWNATAFFLNLLPADAVTVGNHEFDDGIAGVVPFLEAIQSPVLLVNVDNSKEPSFSKFRPSMVLERAGRKIGLIGVILRTTYNMADTGALVFEDEAETVRLEADRLAAEGVDIVVVLSHCGLDVDHIIAANAGPNVDIIVGGHSHSFLYSGQNDKIPMTPASEYPTVVNQPDGHRVLIVQASAYTKLVGDIVLYFDDQGIVQHWEGNPIYLSNDIVPDAEVLEAIAPWKVAIDAVGERTIGATAVDLLKPPCNFGECVLGNLIADSMVEAFVPMAEEGSWTYASIAAIAVGRIRQSLVPGDISFKHLIEVLPFENKLVCLELRGFQLVGLLEHGAELSWDEHRFNAKNLMHVSGLRVVYNVTNPIGHRVLSVEALCQDCSMPSYAPVEMFKMYRVVTVSYLAEGGDGFEIFPRYGRNRVVAPMDDVQAFEEYVKPRSPVAPVLEERIQILN | not soluble
13 | MAHHHHHHMSSLKYIENSINSNIRVDGRTLSTYRTIEINKNILVSADGSSSVMNEENNVICGIKLSLLTPSLDAPDEGVINLQIDCPASVVANRIKKDHLQIMSSIIYDLCLKNNIDRKKMCILPSTFVWGVDINVMVLNAGGGLLDIISMAIYVALKDTVVPVVKPKKKIDESNTFHHTKCADYQVEIVENQKTNFPYENVPICVSIGEINNKYVYDMSKVEEELVENIFVVAVTSSGKCVAFHKLYGISMEIASILNMTENSSRISHHLFEKINEAIAKIETRSVLV | not soluble
14 | MGSDKIHHHHHHMTESQALIWDETFPSLLLKGQGTTSFLHGQTTADVFAQKELDRIFMCCWLSTKGALKAVLEIRLSDDMAEIVIICGEINSIRDGFESVIFPADKVKLEVIDPIRRRQEINNNSSWKDSDFSWIDDNTFSIDGITKYKKATKEELEGWKIRQGIPSFDKEMNGETNPYELGLADTINLDKGCYLGQEAMAKFFRSKSLKYQLRYWEAYGENDNFQIGKKFFNTNKNEGYKKNVGVVTSSIRVDDNFFNGLALIKKTFLDHDFCFSENGDSITIKKPISFTNPF | not soluble
15 | DARFSLGGYAGGMYDVHVKNSWYVQPQLLFTYEEFRSKTRLGTDSFFSKFNLELPILASYNVALNNKWNLHINAGPYLSYAMFGRDKSIDYAYGNGMHSSLGWWHQDFPDHFTYGGRAGVSLESEHFIYTIDGKCSLRKRPFGRSVSLSAGVGYKF | not soluble
16 | MASEMIVDHRQKAFELLKVDAEKILKLIRVQMDNLTMPQCPLYEEVLDTQMFGLSREIDFAVRLGLVDEKDGKDLLYTLERELSALHDAFTAK | soluble
17 | MSDSTQMEANAAINEIKKRTRKLDQSLQMRFCADQFFIGNHCTKLASGKSIIISQNSKNRICLRFFMAADPLVGYTGRDFGIAFNQIDHISLKDEQQENPAVLICTLNLSSYTKMCKLQTGLKDVVEKPFLYNKSLARNLTFILKPWNDDPDTFVKISYNDEHREYVHSYDYDVAKSLMFKEVQAVWEQSLKEQLQRRHQTGRVYLTSQLSEMTPREWVQFLADQKLSKIVCHNGSIQYARVEDNPHGRKHTAVATNGFDHRGTRVLNSFGKAHASLATQEKSYAKKRKLTEQSLKLIYRNDRSVWLEGSCAKNLKMPKINSEPNMGEFMGWPDMDNAMTHPTSNFENEDVMKSTKQPNDFVSFEQLQAPPPVLQRQNGAIYSTQSVAFTHISGNDGVEDLTEKISHLGEEAYNIDMANALHAFSDNWHYEIHPNTVHNASFEQLHIGDGNSSIGTIGFNPLEPYPQSSFPQSNNWQQAHGDFTFPQVSFPNTQQGSCLPSTPTAALPPTRPVVEKIPPDTQLFTFPPSGSCTTGMDPVVLLVKDIKTLDRKEFLNDSVMAFMLNYIAFMLSSELMKSVHMCNTFLFVNLTRLLPPLCFSKRRPIEPEHIKIVKDNCPRVLRWTRKFDVLAKDYIIIPINEDLHWLVIAVINPSGAIVDMSNEEASRAAPKCYIVFFDPLSGLDPSKKNHMCHCIKIYLAQLYENTKAPGMKFASKNPTIYDEERVVVTRAENTPIQDNFYDCGLYVLHFIEGLFCYPNRPVNVNDFPNFDWSKFFPEANKMCDLMRDKVYNLILQQADKPARSRLAKFERENKCGLSREGALRKARRHSAVNERRTKRHRDYYARHYSLSPPHRNVMNDDPTFMNPRGLAEMPITRLVRRLRIPEDNFPIAY | not soluble
